{
  "source": "paper PMC3750173",
  "about": "“Ferredoxin Competes with Bacterial Frataxin in Binding to the Desulfurase IscS*^([image sbox.jpg])” (The Journal of Biological Chemistry, 2013)",
  "molecules": {"B1": {"name": "holo-Fdx (cluster-loaded E. coli ferredoxin) (natural protein)", "chain": "MPKIVILPHQDLCPDGAVLEANSGETILDAALRNGIEIEHACEKSCACTTCHCIVREGFDSLPESSEQEDDMLDKAWGLEPESRLSCQARVTDEDLVVEIPRYTINHAREH", "modifications": "[2Fe-2S] cluster bound (holo); biotinylated for BLI (site not stated); 15N or 15N/2H labelled for NMR", "notes": "ferredoxin (Fdx) of the isc operon, E. coli; fdx amplified from E. coli genomic DNA into a modified pET-24 vector; The same construct was used 15N- or 15N/2H-labelled in NMR and biotinylated on streptavidin biosensors in BLI; residues left after TEV cleavage and the NcoI site are not described; also called [15N]holo-Fdx; [15N/2H]holo-Fdx; source: E. coli, purified (nickel-nitrilotriacetic …)"}, "B2": {"name": "holo-Fdx_E57K/D60K (natural protein, E. coli)", "chain": "MPKIVILPHQDLCPDGAVLEANSGETILDAALRNGIEIEHACEKSCACTTCHCIVRKGFKSLPESSEQEDDMLDKAWGLEPESRLSCQARVTDEDLVVEIPRYTINHAREH", "modifications": "[2Fe-2S] cluster bound (holo); 15N labelled", "notes": "ferredoxin (Fdx) of the isc operon, E. coli; mutant of the pET-24 construct; source: E. coli, purified (nickel-nitrilotriacetic acid-agarose, TEV cleavage, Superdex G75, MonoQ); not shown: GST, N-terminal, cleaved; His tag, N-terminal, cleaved"}, "B3": {"name": "holo-Fdx_D11K (natural protein, E. coli)", "chain": "MPKIVILPHQKLCPDGAVLEANSGETILDAALRNGIEIEHACEKSCACTTCHCIVREGFDSLPESSEQEDDMLDKAWGLEPESRLSCQARVTDEDLVVEIPRYTINHAREH", "modifications": "[2Fe-2S] cluster bound (holo); 15N labelled", "notes": "as for B2"}, "B4": {"name": "CyaY (bacterial ortholog of frataxin) (natural protein, E. coli, UniProt P27838 1-106, looked up)", "chain": "MNDSEFHRLADQLWLTIEERLDDWDGDSDIDCEINGGVLTITFENGSKIIINRQEPLHQVWLATKQGGYHFDLKGDEWICDRSGETFWDLLEQAATQQAGETVSFR", "notes": "CyaY, the bacterial ortholog of frataxin, E. coli; also called bacterial frataxin"}},
  "key": {"[1]": {"target": "holo-Fdx (cluster-loaded E. coli ferredoxin) (E. coli) (UniProt P0A9R4)", "experiment": "SAXS; solutions of 2.5-5.0 mg/ml at 10 °C; IscS alone and holo-Fdx·IscS complex"}, "[2]": {"target": "holo-Fdx (cluster-loaded E. coli ferredoxin) (E. coli) (UniProt P0A9R4)", "experiment": "BLI; biotinylated holo-Fdx on streptavidin biosensors, IscS 0-60 μM; 20 mM HEPES pH 7.5, 150 mM NaCl, 2 mM TCEP, 0.5 mg/ml BSA, 25 °C; Kd from the amplitude at equilibrium"}, "IscS_D346K/E347K": {"target": "T1, IscS_D346K/E347K (E. coli, UniProt P0A6B7 1-404, D346K | E347K)", "T1 construct": "cysteine desulfurase IscS, E. coli; site-directed mutant of pET-11 IscS", "experiment": "NMR titration; 15N-SOFAST HMQC of [15N]- or [15N/2H]Fdx or Fdx mutants titrated with unlabelled IscS or IscS mutants; 20 mM Tris, 150 mM NaCl, 20 mM TCEP, pH 8, 298 K", "conditions": "both partners purified"}, "IscS_R112E/R116E": {"target": "T2, IscS_R112E/R116E (E. coli, UniProt P0A6B7 1-404, R112E | R116E)", "T2 construct": "cysteine desulfurase IscS, E. coli; site-directed mutant of pET-11 IscS; designed after the first round of docking", "experiment": "NMR titration; 15N-SOFAST HMQC of [15N]- or [15N/2H]Fdx or Fdx mutants titrated with unlabelled IscS or IscS mutants; 20 mM Tris, 150 mM NaCl, 20 mM TCEP, pH 8, 298 K", "conditions": "both partners purified"}, "IscS_I314E/M315E": {"target": "T3, IscS_I314E/M315E (E. coli, UniProt P0A6B7 1-404, I314E | M315E)", "T3 construct": "cysteine desulfurase IscS, E. coli; site-directed mutant of pET-11 IscS", "experiment": "NMR titration; 15N-SOFAST HMQC of [15N]- or [15N/2H]Fdx or Fdx mutants titrated with unlabelled IscS or IscS mutants; 20 mM Tris, 150 mM NaCl, 20 mM TCEP, pH 8, 298 K", "conditions": "both partners purified"}, "[3]": {"target": "T4, IscS (E. coli desulfurase), wild type (E. coli, UniProt P0A6B7 1-404)", "T4 construct": "cysteine desulfurase IscS, E. coli; construct pET-11 IscS (EMBL-Hamburg); Dimer by SAXS; also called desulfurase IscS", "experiment": "NMR titration; 15N-SOFAST HMQC of [15N]- or [15N/2H]Fdx or Fdx mutants titrated with unlabelled IscS or IscS mutants; 20 mM Tris, 150 mM NaCl, 20 mM TCEP, pH 8, 298 K", "conditions": "both partners purified"}, "[4]": {"target": "T4, IscS (E. coli desulfurase), wild type", "experiment": "NMR titration; competition: holo-Fdx·IscS sample (with IscU added before) titrated with CyaY up to 3 molar excess over holo-Fdx; 20 mM Tris, 150 mM NaCl, 20 mM TCEP, pH 8, 298 K", "conditions": "both partners purified"}},
  "data": [
    {"molecule": "IscS (E. coli desulfurase), wild type (from UniProt P0A6B7 1-404) (enzyme)", "values": [
      {"measurement": "percent of free components", "setting": "[1]", "value": 10, "unit": "%"},
      {"measurement": "percent of the complex (OLIGOMER fit)", "setting": "[1]", "value": 80, "unit": "%"},
      {"measurement": "stoichiometry N (IscS:Fdx (2:2))", "setting": "[1]", "value": 1},
      {"measurement": "Kd", "setting": "[2]", "value": 1.5, "unit": "µM"}
    ]},
    {"molecule": "B1", "values": [
      {"measurement": "binding result", "setting": "IscS_D346K/E347K", "value": "binds"},
      {"measurement": "binding result", "setting": "IscS_R112E/R116E", "value": "binds"},
      {"measurement": "binding result", "setting": "IscS_I314E/M315E", "value": "binds"}
    ]},
    {"molecule": "B2", "values": [
      {"measurement": "binding result", "setting": "[3]", "value": "binds"}
    ]},
    {"molecule": "B3", "values": [
      {"measurement": "binding result", "setting": "[3]", "value": "binds"}
    ]},
    {"molecule": "B4", "values": [
      {"measurement": "binding result", "setting": "[4]", "value": "binds"}
    ]}
  ]
}
